Data published in the supplement of paper PMC10724198.
± gives the standard deviation of the averaged measurements.

Test system: Saccharomyces cerevisiae
Assay: protein stability index of tFT-peptide fusion (C-terminal peptide) (PSI (0-1 scale)); higher = more stable (slower turnover)
Conditions: genetic background: wild type; temperature: 30 C
Description: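 Multiplexed protein stability (MPS) profiling in S. cerevisiae. Random 12-aa peptides (tFT-X12 library) are fused to the C-terminus of a sfGFP-mCherry tandem fluorescent timer, after mCherry and a GGGS linker. Cells are FACS-sorted into 8 mCherry/sfGFP bins and deep-sequenced. The protein stability index (PSI) is the read-weighted bin average, scaled from 0 (unstable) to 1 (stable). Only peptides with >10 reads are reported; cells were grown at 30 °C in SC-His with glucose.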
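Further: PSI is a weighted mean of sequencing reads over stability bins, variants kept only with over 10 reads, mCherry proximal and sfGFP distal, peptide attached via GGGS linker.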

| Sequence | protein stability index |
| --- | --- |
| IKKKKEEKKKKK | 0.586 ± 0.023 |
| IKKLNTYIKRNV | 0.586 ± 0.025 |
| IKKLYIICQQMK | 0.666 ± 0.035 |
| IKKNKKKKNERK | 0.675 ± 0.025 |
| IKQEKPTKLPEP | 0.6435 ± 0.0052 |
| IKREATNASEPN | 0.686 ± 0.057 |
| IKREGRDNEEKK | 0.703 ± 0.039 |
| IKTKKKKENKRR | 0.723 ± 0.008 |
| IKTLLDYESMRS | 0.768 ± 0.034 |
| IKVKRRQLKQEK | 0.779 ± 0.097 |
| ILCPFSGCGAGG | 0.683 ± 0.022 |
| ILEGFRHVSPVG | 0.717 ± 0.085 |
| ILFGSILGVPLL | 0.661 ± 0.01 |
| ILFSILHLLSYL | 0.6426 ± 0.0039 |
| ILVHFQGVHTVL | 0.663 ± 0.018 |
| IMCPVRDSNIFS | 0.733 ± 0.026 |
| INIKKKKKIQHI | 0.564 ± 0.016 |
| INKRKQKLIKKV | 0.628 ± 0.0069 |
| INWGVRGTLSSE | 0.706 ± 0.04 |
| IPLSPLRSPPPR | 0.648 ± 0.023 |
| IPRPFRSLPFLP | 0.7307 ± 0.0047 |
| IPRRMFNIRKKR | 0.666 ± 0.036 |
| IQAVHYTARVPN | 0.664 ± 0.072 |
| IQIGESLYFWFV | 0.654 ± 0.066 |
| IRAGRGPARVVP | 0.707 ± 0.058 |

| Sequence | protein stability index |
| --- | --- |
| IRLMTTIITYMI | 0.44 ± 0.13 |
| IRPNLERKIKVR | 0.6226 ± 0.0014 |
| IRQPNHSIGPHG | 0.719 ± 0.024 |
| IRRHNVELSGYL | 0.641 ± 0.022 |
| IRRKLINYIKKG | 0.619 ± 0.066 |
| IRRLCGSSRPLP | 0.708 ± 0.037 |
| IRSAGEKDRKRE | 0.696 ± 0.03 |
| IRSVNFNIFVKR | 0.748 ± 0.057 |
| IRSVVLSSCWRG | 0.706 ± 0.0097 |
| IRVADLNSSSFC | 0.888 ± 0.16 |
| ISIRKNSNQETM | 0.692 ± 0.14 |
| ISPRSRSCAYGV | 0.734 ± 0.073 |
| ISRDNSQITRNM | 0.68 ± 0.015 |
| ITALSSPVRDKL | 0.646 ± 0.061 |
| ITEGGANLEGRF | 0.661 ± 0.029 |
| ITGPLAPYLGGF | 0.688 ± 0.037 |
| ITIPICTTFHHV | 0.731 ± 0.029 |
| ITIPISGLQVGV | 0.591 ± 0.027 |
| ITNQVIRLSLSN | 0.732 ± 0.083 |
| ITRAVLPARLFR | 0.705 ± 0.013 |
| ITRDFQLWASDL | 0.708 ± 0.0083 |
| ITSHRDSVSRWK | 0.707 ± 0.0095 |
| ITSQLWGVPLPY | 0.7134 ± 0.0032 |
| IVGRGGRGGWGV | 0.685 ± 0.04 |
| IVLHLAASPTPP | 0.65 ± 0.015 |

| Sequence | protein stability index |
| --- | --- |
| IVLRRRKVTRRI | 0.68 ± 0.043 |
| IVPIVDMMIIRK | 0.653 ± 0.068 |
| IVPPALRSDGRR | 0.668 ± 0.035 |
| IVSPSYGEGSIR | 0.695 ± 0.026 |
| IVSVSLYLYHFR | 0.548 ± 0.0059 |
| IWFRGGPGQVPV | 0.683 ± 0.027 |
| IWGLSGGKKLLW | 0.718 ± 0.043 |
| IWQLRARIQAGW | 0.617 ± 0.047 |
| IWTRAFAPSNRF | 0.715 ± 0.02 |
| KACVKRVYCILE | 0.58 ± 0.015 |
| KAEEKARGEDWQ | 0.681 ± 0.05 |
| KAGGGEGRDAWG | 0.667 ± 0.049 |
| KAKKKRRGTSKN | 0.703 ± 0.066 |
| KARMTDQLKSTS | 0.672 ± 0.045 |
| KATIRRGGKKEK | 0.682 ± 0.014 |
| KCGLQRFREAIY | 0.61 ± 0.0084 |
| KCKLNDTETMGK | 0.693 ± 0.026 |
| KCLCGVHVRLRA | 0.5901 ± 0.0017 |
| KDDHTLMTKYNA | 0.643 ± 0.025 |
| KDEGIRENKPNH | 0.668 ± 0.078 |
| KDGMATKCIAYT | 0.657 ± 0.011 |
| KDLEIKKEKRKD | 0.666 ± 0.015 |
| KEARHCAQRKDI | 0.546 ± 0.062 |
| KEKNKIKNREVK | 0.618 ± 0.052 |
| KENKKKKQRKLK | 0.774 ± 0.067 |

| Sequence | protein stability index |
| --- | --- |
| KEQKKKLKKKHG | 0.594 ± 0.099 |
| KERKEKKKKKNK | 0.7227 ± 0.0045 |
| KESEKRKRENKN | 0.698 ± 0.025 |
| KESKIKDKNSII | 0.734 ± 0.012 |
| KETLRMKFNSWK | 0.6764 ± 0.0043 |
| KETSERKNKETG | 0.624 ± 0.041 |
| KFKAYNIKKWKE | 0.702 ± 0.03 |
| KFVSQLGQRTRF | 0.745 ± 0.05 |
| KGEGGEGSMGGA | 0.733 ± 0.053 |
| KGGCGAGRDGRG | 0.731 ± 0.026 |
| KGGFGCVGLPGG | 0.638 ± 0.031 |
| KGHQGGLSEGMI | 0.6 ± 0.092 |
| KGMEWEKGYKRL | 0.838 ± 0.23 |
| KGQNLAVTRERE | 0.7 ± 0.024 |
| KGRLRVGAAGCD | 0.633 ± 0.011 |
| KGYGKTGTLRHD | 0.646 ± 0.013 |
| KHQNEKKQTNKA | 0.623 ± 0.034 |
| KIDQLDHVGLYS | 0.674 ± 0.015 |
| KIEHEGIKTGGT | 0.757 ± 0.16 |
| KIFRNKHENDLK | 0.695 ± 0.026 |
| KIHRNGNKKEKD | 0.7 ± 0.013 |
| KIKKKKEQTKKK | 0.752 ± 0.15 |
| KIKKKKKKNKEH | 0.591 ± 0.028 |
| KIKRKKSIHDKQ | 0.693 ± 0.012 |
| KIKRTNKNIKKS | 0.672 ± 0.017 |

| Sequence | protein stability index |
| --- | --- |
| KIKSEFNMIGKN | 0.693 ± 0.091 |
| KILNIKCLLANK | 0.686 ± 0.017 |
| KILRKVIKQKGN | 0.599 ± 0.041 |
| KIRIWWIEEKTI | 0.6067 ± 0.0023 |
| KIRRECIGSSVY | 0.687 ± 0.019 |
| KISNRNKRTNRK | 0.689 ± 0.077 |
| KITKRTKKTKEN | 0.67086 ± 0.00056 |
| KKDQEKEKKGKE | 0.613 ± 0.015 |
| KKEAKRDKKSGR | 0.727 ± 0.12 |
| KKEEKKRRKPQR | 0.626 ± 0.039 |
| KKEKKKTKKWQE | 0.694 ± 0.1 |
| KKEPEKEQQNKE | 0.746 ± 0.097 |
| KKEQKRKKKEKQ | 0.758 ± 0.098 |
| KKERINNDLPGS | 0.619 ± 0.026 |
| KKERSTKTNRNV | 0.635 ± 0.0072 |
| KKGRKKEGKREK | 0.621 ± 0.06 |
| KKIKKRQSKENK | 0.704 ± 0.015 |
| KKKENRQKREIQ | 0.647 ± 0.029 |
| KKKETEKPRKQK | 0.677 ± 0.054 |
| KKKETKKENKKK | 0.723 ± 0.034 |
| KKKHKNNIQKKK | 0.6129 ± 0.0017 |
| KKKIKKKSIKKT | 0.7074 ± 0.0044 |
| KKKKEEKWSSAR | 0.709 ± 0.061 |
| KKKKGNKKRREK | 0.731 ± 0.0083 |
| KKKKHKNRKEKQ | 0.692 ± 0.019 |

| Sequence | protein stability index |
| --- | --- |
| KKKKIIKKKNIK | 0.77 ± 0.069 |
| KKKKKEEKKNDK | 0.721 ± 0.0073 |
| KKKKKIHIKNKK | 0.707 ± 0.052 |
| KKKKKKKKQNQK | 0.7 ± 0.03 |
| KKKKKKKNKKQE | 0.7456 ± 0.005 |
| KKKKKKKQKSKK | 0.704 ± 0.057 |
| KKKKKKLKKKKI | 0.724 ± 0.056 |
| KKKKKKNKKEKK | 0.689 ± 0.12 |
| KKKKKLKERRKI | 0.668 ± 0.019 |
| KKKKKNKKKKKK | 0.705 ± 0.046 |
| KKKKKQEREKRN | 0.623 ± 0.037 |
| KKKKKQKEKKQK | 0.72 ± 0.0083 |
| KKKKKRITKIKN | 0.7089 ± 0.0018 |
| KKKKKRTKKNNH | 0.767 ± 0.11 |
| KKKKNKKEEHVE | 0.715 ± 0.02 |
| KKKKNKKIKINE | 0.6874 ± 0.0033 |
| KKKKNKKNKRKN | 0.613 ± 0.034 |
| KKKKNKNKRTRK | 0.662 ± 0.038 |
| KKKMINQKKKKD | 0.649 ± 0.016 |
| KKKNKEKSKKKK | 0.761 ± 0.05 |
| KKKNKKQNKAKK | 0.6396 ± 0.0023 |
| KKKRKKNRKTNK | 0.67 ± 0.02 |
| KKKSNNNNQKPH | 0.737 ± 0.016 |
| KKMNVKNNKSKI | 0.777 ± 0.17 |
| KKNLITRQNPLS | 0.69004 ± 0.0003 |

| Sequence | protein stability index |
| --- | --- |
| KKNQKEKATSRK | 0.769 ± 0.043 |
| KKNQNSKNRKEN | 0.627 ± 0.036 |
| KKNRSRKRRNKK | 0.713 ± 0.032 |
| KKNYNTKLTQHP | 0.683 ± 0.04 |
| KKRKKNIKQNTK | 0.617 ± 0.043 |
| KKRQKKKKLIPQ | 0.697 ± 0.024 |
| KKTDKSNKVKRI | 0.669 ± 0.013 |
| KKWRKKTEHDKE | 0.729 ± 0.028 |
| KKYEKNGKSSQK | 0.685 ± 0.1 |
| KKYETNENNQKK | 0.686 ± 0.027 |
| KKYKKIGYRRIP | 0.773 ± 0.12 |
| KKYNRNRIKKAR | 0.7 ± 0.08 |
| KKYYCRKLNTKK | 0.715 ± 0.017 |
| KLKACRIHEENR | 0.676 ± 0.019 |
| KLKNKRKKIRNR | 0.71 ± 0.045 |
| KLNKKKKITIRI | 0.589 ± 0.025 |
| KLRSTLVSAQGV | 0.652 ± 0.015 |
| KLTKAQPRMPLL | 0.702 ± 0.027 |
| KLVVFPYIRPSP | 0.709 ± 0.021 |
| KMCISLGTVLAV | 0.5504 ± 0.0055 |
| KMSRKIKIRERG | 0.658 ± 0.016 |
| KNCYPTKKIAIK | 0.638 ± 0.016 |
| KNDLHGLFLMSE | 0.648 ± 0.041 |
| KNIEKKKQKDTQ | 0.645 ± 0.058 |
| KNITVVKKAFDA | 0.654 ± 0.024 |

| Sequence | protein stability index |
| --- | --- |
| KNKFSTWDNEVN | 0.718 ± 0.041 |
| KNKKKKINKNKK | 0.713 ± 0.067 |
| KNKKNKKKKTMK | 0.685 ± 0.041 |
| KNKKRDKYRKKT | 0.607 ± 0.011 |
| KNKRTQKKKRKK | 0.7299 ± 0.0016 |
| KNRKIIIITLPK | 0.63 ± 0.036 |
| KPKKKRTKQRKR | 0.705 ± 0.08 |
| KPKRIRCDRSPH | 0.694 ± 0.019 |
| KPPCFSPTHHCP | 0.713 ± 0.0018 |
| KQANTKINSQKT | 0.712 ± 0.036 |
| KQGFVRARSYHP | 0.699 ± 0.013 |
| KQKKTKKTKKQN | 0.647 ± 0.044 |
| KQKQNKKKNNKT | 0.843 ± 0.16 |
| KQLGMTCRYISK | 0.692 ± 0.022 |
| KQMRIEYKTRNI | 0.604 ± 0.015 |
| KQRQTKTIRGPR | 0.672 ± 0.059 |
| KQWCFLKWGVNV | 0.558 ± 0.058 |
| KREKENIAKSSV | 0.718 ± 0.078 |
| KREMCHRYTRRS | 0.67 ± 0.097 |
| KRFQDRPRPGAH | 0.687 ± 0.044 |
| KRGYLRTNPLSY | 0.7056 ± 0.0061 |
